The values below come from patent publication US20140220033A1, “Administration of an Anti-Activin-A Compound to a Subject” (Santa Maria Biotherapeutics, Inc., priority 2013, published 2014).

The test system of experiment [1] is TOV-21G ovarian cancer xenografts. The experiment can be described thus: TOV-21G ovarian cancer xenograft growth in nude mice. It is filed as in vivo, mouse. On the procedure:
5×10^6 TOV-21G ovarian cancer cells were implanted subcutaneously into individual female athymic nu/nu mice (Harlan). Treatment was initiated at day 12 after tumor implantation, when the average tumor volume reached approximately 150 mm^3. The mice received PBS, sActRIIB (30 mg/kg, SC, 1×/week) or activin-A antibody (30 mg/kg, SC, 2×/week). In a separate chemotherapy combination experiment, the mice were treated with PBS, sActRIIB (10 mg/kg, SC, 1×/week), 5-FU (50 mg/kg, IP, 3 cycles, 4 daily injections per cycle) or sActRIIB and 5-FU combination at the same doses above.
For all xenograft experiments, the tumor sizes were measured longitudinally by using an electronic caliper Immediately prior to the 1st dose, the tumor-bearing mice were randomized to ensure even distribution in tumor sizes across different groups. Tumor volumes (mm^3) were calculated as tumor length (mm)×tumor width (mm)×tumor height (mm) Tumor weights were determined by necropsy.
In another experiment, athymic nude mice received TOV-21G xenografts in the abdominal flank. After 14 days, subcutaneous hu-sActRIIB-Fc was administered weekly alone or in combination with 5-FU.

In a further experiment the test system is VEGF transcripts. In words: VEGF mRNA in cell cultures (real-time RT-PCR). It counts as cell-based, human, bovine. As to conditions: TOV-21G, BAEC, MRC-5, CCD-Lu, U937 cultures treated with recombinant activin-A, without or with sActRIIB; FIG. 16A.
The next experiment relates to Ang-1 mRNA. In words: Ang-1 mRNA in cell cultures (real-time RT-PCR). The following applies: BAEC, MRC-5 and CCD-Lu cultures treated with recombinant activin-A, without or with sActRIIB; FIG. 16B. It counts as cell-based, human, bovine.
The subject of a further experiment is VEGF. In words: VEGF release into culture medium (ELISA). The following applies: TOV21G, MRC-5, CCD-Lu and TPH-1 cells treated with activin-A, without or with sActRIIB; FIG. 17A. It counts as cell-based, human. On the procedure: (§1) The serum VEGF levels in inh-KO mice were measured by using immunoassay kit (R&D Systems), and the levels of human VEGF and Ang-1 in cell line culture medium were quantified using ELISA kits purchased from Invitrogen (VEGF) and R&D Systems (Ang-1), by following the manufacturers' recommended protocols.

In a further experiment the test system is Ang-1. The experiment can be described thus: Ang-1 release into culture medium (ELISA). It is filed as cell-based, human. The following applies: MRC-5 and CCD-Lu cells treated with activin-A, without or with sActRIIB; FIG. 17B. On the procedure: as §1
The subject of another experiment is activin-A (βA) mRNA. In words: Endogenous activin-A (βA) mRNA in cell cultures (real-time RT-PCR). It is filed as cell-based, human, bovine. As to conditions: TOV21G, BAEC, MRC-5, CCD-Lu, U937 and THP-1 cultures treated with recombinant activin-A, without or with sActRIIB; FIG. 18.

Consider `O=c1[nH]cc(F)c(=O)[nH]1` [5-FU, 5-Fluorouracil, reference compound], for which the tumor growth reduction in experiment [1] (52 days after tumor cell injection, versus vehicle-treated tumor-bearing group, p<0.0001, weekly SC hu-sActRIIB-Fc from day 14, alone or with 5-FU) stood at 47%. Besides, the “rate of tumor growth of TOV-21G xenografts” value in experiment [1] (chemotherapy combination experiment, sActRIIB 10 mg/kg SC 1x/week, 5-FU 50 mg/kg IP 3 cycles, alone or together, FIG. 13) is recorded as “decreased the rate of tumor growth significantly”.

B1: recombinant activin-A: Recombinant activin-A produced using mammalian expression system (Amgen Inc); stimulus in cell cultures (protein)
chain: GLECDGKVNICCKKQFFVSFKDIGWNDWIIAPSGYHANYCEGECPSHIAGTSGSSLSFHSTVINHYRMRGHSPFANLKSCCVPTKLRPMSMLYYDDGQNIIKKDIQNMIVEECGCS
Take B1: in the experiment on VEGF transcripts, the “levels of VEGF transcripts” value is “marked increases”. The “levels of Ang-1 mRNA” value with Ang-1 mRNA was “marked increases”. Moreover, in the experiment with VEGF, the “release of VEGF into the culture medium” value is on record as “increased the release”. For the same molecule, the “release of Ang-1 into the culture medium” value with Ang-1 is on record as “increased the release”. Moreover, the “endogenous βA mRNA expression” value in the experiment with activin-A (βA) mRNA is given as “markedly upregulated”.
